Measurements taken from patent publication US12630600B2 (MEDIMMUNE LIMITED, priority 2022, dated 2026).
Starred links: 1 amine or outer side, 2 acyl side, 3 side chain; linkers in the order of their positions; H or OH if unused. Non-standard residues stand in square brackets, D forms with d. Groups on a side chain read outwards from the residue. No end group written: not given here. *: point of attachment. C20 diacid = O=C(O)CCCCCCCCCCCCCCCCCCC(=O)*; C18 diacid = O=C(O)CCCCCCCCCCCCCCCCC(=O)*; γGlu = O=C(O)[C@H](CCC(=O)[*:2])N[*:1]; αMeF = C[C@](N)(Cc1ccccc1)C(=O)O; AEEA = NCCOCCOCC(=O)O; Aib = CC(C)(N)C(=O)O

How the values were obtained:
[1] = biological target: human GLP-1 receptor (human, UniProt P43220); test: cell-based or functional assay
[2] = biological target: human glucagon receptor (human, UniProt P47871); test: cell-based or functional assay

B1: Peptide 416 (peptide)
peptide: H[Aib]QGTFTSDVSK[αMeF]LESK([AEEA-AEEA-γGlu-C20 diacid])RAQDFVRWLEA[Aib]G-OH
modifications: N-terminus assumed
SMILES: CC(C)C[C@H](NC(=O)[C@H](Cc1c[nH]c2ccccc12)NC(=O)[C@H](CCCNC(=N)N)NC(=O)[C@@H](NC(=O)[C@H](Cc1ccccc1)NC(=O)[C@H](CC(=O)O)NC(=O)[C@H](CCC(N)=O)NC(=O)[C@H](C)NC(=O)[C@H](CCCNC(=N)N)NC(=O)[C@H](CCCCNC(=O)COCCOCCNC(=O)COCCOCCNC(=O)CC[C@H](NC(=O)CCCCCCCCCCCCCCCCCCC(=O)O)C(=O)O)NC(=O)[C@H](CO)NC(=O)[C@H](CCC(=O)O)NC(=O)[C@H](CC(C)C)NC(=O)[C@](C)(Cc1ccccc1)NC(=O)[C@H](CCCCN)NC(=O)[C@H](CO)NC(=O)[C@@H](NC(=O)[C@H](CC(=O)O)NC(=O)[C@H](CO)NC(=O)[C@@H](NC(=O)[C@H](Cc1ccccc1)NC(=O)[C@@H](NC(=O)CNC(=O)[C@H](CCC(N)=O)NC(=O)C(C)(C)NC(=O)[C@@H](N)Cc1c[nH]cn1)[C@@H](C)O)[C@@H](C)O)C(C)C)C(C)C)C(=O)N[C@@H](CCC(=O)O)C(=O)N[C@@H](C)C(=O)NC(C)(C)C(=O)NCC(=O)O
With B1 the “cAMP production EC50” value [1] was 0.0677 nM and the “cAMP production EC50” value [2] was 0.581 nM.

B2: Peptide 418 (peptide)
peptide: H[Aib]QGTFTSDVSK[αMeF]LDTK([AEEA-AEEA-γGlu-γGlu-C20 diacid])RAQDFVAWLEA[Aib]G-OH
modifications: N-terminus assumed
SMILES: CC(C)C[C@H](NC(=O)[C@H](Cc1c[nH]c2ccccc12)NC(=O)[C@H](C)NC(=O)[C@@H](NC(=O)[C@H](Cc1ccccc1)NC(=O)[C@H](CC(=O)O)NC(=O)[C@H](CCC(N)=O)NC(=O)[C@H](C)NC(=O)[C@H](CCCNC(=N)N)NC(=O)[C@H](CCCCNC(=O)COCCOCCNC(=O)COCCOCCNC(=O)CC[C@H](NC(=O)CC[C@H](NC(=O)CCCCCCCCCCCCCCCCCCC(=O)O)C(=O)O)C(=O)O)NC(=O)[C@@H](NC(=O)[C@H](CC(=O)O)NC(=O)[C@H](CC(C)C)NC(=O)[C@](C)(Cc1ccccc1)NC(=O)[C@H](CCCCN)NC(=O)[C@H](CO)NC(=O)[C@@H](NC(=O)[C@H](CC(=O)O)NC(=O)[C@H](CO)NC(=O)[C@@H](NC(=O)[C@H](Cc1ccccc1)NC(=O)[C@@H](NC(=O)CNC(=O)[C@H](CCC(N)=O)NC(=O)C(C)(C)NC(=O)[C@@H](N)Cc1c[nH]cn1)[C@@H](C)O)[C@@H](C)O)C(C)C)[C@@H](C)O)C(C)C)C(=O)N[C@@H](CCC(=O)O)C(=O)N[C@@H](C)C(=O)NC(C)(C)C(=O)NCC(=O)O
For B2, the “cAMP production EC50” value [1] was 0.0881 nM and the “cAMP production EC50” value [2] was 0.222 nM.

B3: Peptide 415 (peptide)
peptide: H[Aib]QGTFTSDVSK[αMeF]LESK([AEEA-AEEA-γGlu-C18 diacid])RAQDFVRWLEA[Aib]G-OH
modifications: N-terminus assumed
SMILES: CC(C)C[C@H](NC(=O)[C@H](Cc1c[nH]c2ccccc12)NC(=O)[C@H](CCCNC(=N)N)NC(=O)[C@@H](NC(=O)[C@H](Cc1ccccc1)NC(=O)[C@H](CC(=O)O)NC(=O)[C@H](CCC(N)=O)NC(=O)[C@H](C)NC(=O)[C@H](CCCNC(=N)N)NC(=O)[C@H](CCCCNC(=O)COCCOCCNC(=O)COCCOCCNC(=O)CC[C@H](NC(=O)CCCCCCCCCCCCCCCCC(=O)O)C(=O)O)NC(=O)[C@H](CO)NC(=O)[C@H](CCC(=O)O)NC(=O)[C@H](CC(C)C)NC(=O)[C@](C)(Cc1ccccc1)NC(=O)[C@H](CCCCN)NC(=O)[C@H](CO)NC(=O)[C@@H](NC(=O)[C@H](CC(=O)O)NC(=O)[C@H](CO)NC(=O)[C@@H](NC(=O)[C@H](Cc1ccccc1)NC(=O)[C@@H](NC(=O)CNC(=O)[C@H](CCC(N)=O)NC(=O)C(C)(C)NC(=O)[C@@H](N)Cc1c[nH]cn1)[C@@H](C)O)[C@@H](C)O)C(C)C)C(C)C)C(=O)N[C@@H](CCC(=O)O)C(=O)N[C@@H](C)C(=O)NC(C)(C)C(=O)NCC(=O)O
For B3, the “cAMP production EC50” value [1] was 0.0147 nM and the “cAMP production EC50” value [2] was 0.301 nM.

B4: Peptide 417 (peptide)
peptide: H[Aib]QGTFTSDVSK[αMeF]LDTK([AEEA-AEEA-γGlu-γGlu-C18 diacid])RAQDFVAWLEA[Aib]G-OH
modifications: N-terminus assumed
SMILES: CC(C)C[C@H](NC(=O)[C@H](Cc1c[nH]c2ccccc12)NC(=O)[C@H](C)NC(=O)[C@@H](NC(=O)[C@H](Cc1ccccc1)NC(=O)[C@H](CC(=O)O)NC(=O)[C@H](CCC(N)=O)NC(=O)[C@H](C)NC(=O)[C@H](CCCNC(=N)N)NC(=O)[C@H](CCCCNC(=O)COCCOCCNC(=O)COCCOCCNC(=O)CC[C@H](NC(=O)CC[C@H](NC(=O)CCCCCCCCCCCCCCCCC(=O)O)C(=O)O)C(=O)O)NC(=O)[C@@H](NC(=O)[C@H](CC(=O)O)NC(=O)[C@H](CC(C)C)NC(=O)[C@](C)(Cc1ccccc1)NC(=O)[C@H](CCCCN)NC(=O)[C@H](CO)NC(=O)[C@@H](NC(=O)[C@H](CC(=O)O)NC(=O)[C@H](CO)NC(=O)[C@@H](NC(=O)[C@H](Cc1ccccc1)NC(=O)[C@@H](NC(=O)CNC(=O)[C@H](CCC(N)=O)NC(=O)C(C)(C)NC(=O)[C@@H](N)Cc1c[nH]cn1)[C@@H](C)O)[C@@H](C)O)C(C)C)[C@@H](C)O)C(C)C)C(=O)N[C@@H](CCC(=O)O)C(=O)N[C@@H](C)C(=O)NC(C)(C)C(=O)NCC(=O)O
In the case of B4, the “cAMP production EC50” value [1] is reported as 0.0339 nM and the “cAMP production EC50” value [2] is reported as 0.0164 nM.

B5: Peptide 419 (peptide)
peptide: H[Aib]QGTFTSDVSK[αMeF]LDTK([AEEA-AEEA-γGlu-C18 diacid])RAQDFVRWLE[Aib]E-OH
modifications: N-terminus assumed
SMILES: CC(C)C[C@H](NC(=O)[C@H](Cc1c[nH]c2ccccc12)NC(=O)[C@H](CCCNC(=N)N)NC(=O)[C@@H](NC(=O)[C@H](Cc1ccccc1)NC(=O)[C@H](CC(=O)O)NC(=O)[C@H](CCC(N)=O)NC(=O)[C@H](C)NC(=O)[C@H](CCCNC(=N)N)NC(=O)[C@H](CCCCNC(=O)COCCOCCNC(=O)COCCOCCNC(=O)CC[C@H](NC(=O)CCCCCCCCCCCCCCCCC(=O)O)C(=O)O)NC(=O)[C@@H](NC(=O)[C@H](CC(=O)O)NC(=O)[C@H](CC(C)C)NC(=O)[C@](C)(Cc1ccccc1)NC(=O)[C@H](CCCCN)NC(=O)[C@H](CO)NC(=O)[C@@H](NC(=O)[C@H](CC(=O)O)NC(=O)[C@H](CO)NC(=O)[C@@H](NC(=O)[C@H](Cc1ccccc1)NC(=O)[C@@H](NC(=O)CNC(=O)[C@H](CCC(N)=O)NC(=O)C(C)(C)NC(=O)[C@@H](N)Cc1c[nH]cn1)[C@@H](C)O)[C@@H](C)O)C(C)C)[C@@H](C)O)C(C)C)C(=O)N[C@@H](CCC(=O)O)C(=O)NC(C)(C)C(=O)N[C@@H](CCC(=O)O)C(=O)O
For B5, the “cAMP production EC50” value [1] was 0.0969 nM and the “cAMP production EC50” value [2] was 0.264 nM.
